Measurements as given in the supplement of paper PMC9170038.

Test system: MS2 coat protein
Assay: apparent KD of MS2 coat protein; designed switch direction (-1 OFF switch, 1 ON switch): -1; higher = weaker reporter binding
Summary of the method: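 Stalled E. coli RNA polymerase transcribed designed RNA switches on Illumina chips, which were then titrated with SNAP-549-labelled MS2 coat protein, doubling from 0.7 or 1.5 nM to 3 µM. Steps lasted from 0.8–1.5 h at the lowest concentration to 10–20 min at the highest. The apparent KD is each design's median over clusters of curve-fitted normalised fluorescence.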

[1] = input ligand: microRNA oligo, concentration not stated

Sequence	apparent KD of MS2 coat protein (input ligand: FMN 200 uM)	apparent KD of MS2 coat protein [1]	apparent KD of MS2 coat protein (input ligand: none)	apparent KD of MS2 coat protein (Eterna round: R95, input ligand: microRNA oligo, concentration not stated)
UAAUUAAAUGUAGGAUAUCUGCACGAUUAGUGCAGAGAAGGACAUGAGGAUCACCCAUGUAGAUCAAAUUAAAUUAAUUUAAUU [ENG1/5-D1] (Eterna round: R96, puzzle: Exclusion NG 1)	92.2 nM	24.5 nM	33.8 nM	
UAAUUAAGUGUGAGGAUAUGCUGGUCCUUGGAUCAGCAGAAGGCACAUGAGGAUCACCCAUGUAAAUUAUUUAU [Mat - Exclusion 4 - JL Mod - D60] (Eterna round: R96, puzzle: Brourd's mod of Exclusion 4)	332 nM	54 nM	76.5 nM	
UAAUUAAGUGUGAGGAUAUGCUGGUCCUUGGAUCAGCAGAAGGCACAUGAGGAUCACCCAUGUAAAUUAUUUAU [Mat - Exclusion 4 - JL Mod - D60] (puzzle: Brourd's mod of Exclusion 4)				73.2 nM
UAAUUAAUUAAUUAAUAAUACAUGAGGAUCACCCAUGUAGAUCCUACAUACAAGCUUUGUAGCUCGUCUUAUAAUUA [Stov1/3-A1] (Eterna round: R97, puzzle: Sensor, turn-off variant 1)	214 nM		337 nM	
UAAUUAGACUCAGGAUAUUCGAAGAGAAGAGAGGAAGAAGGGAGGUGACAUGAGGAUCACCCAUGUAUGUGUUGUGUCCAUGUG [Exclusion NG 1 S1] (Eterna round: R96, puzzle: Exclusion NG 1)	326 nM	553 nM	617 nM	
UAAUUAGCAAGUAGAUCCGACAUGAGGAUCACCCAUGUUAUCUGAAAGAACGCAGAAUAACUGUGAGCUCGUCUAAA [Sensor-V1 #1] (Eterna round: R97, puzzle: Sensor, turn-off variant 1)	315 nM		333 nM	
UAAUUGAUUAAUAAAUUAUACAUGAGGAUCACCCAUGUAGAUCCUACGUGCCAUUUAAGUAGCUCGUCUUAUUAUUA [Sensor-V1 #64] (Eterna round: R97, puzzle: Sensor, turn-off variant 1)	142 nM		228 nM	
UAAUUGAUUAAUAGAUUAUACAUGAGGAUCACCCAUGUAGGUCCUACGUGCCAUUUAAGUAGCUCGUCUUAUUAUUA [Sensor-V1 #66] (Eterna round: R97, puzzle: Sensor, turn-off variant 1)	40.2 nM		46.5 nM	
UAAUUGUGAGGAUAUUCGUUGUUCUCGGAGACGAGAAUAACGGAGAAGGCACAUGAGGAUCACCCAUGUUCCUU [Mat - Exclusion 4 - JL Mod - D13] (Eterna round: R97, puzzle: Exclusion 4)	98.4 nM		18 nM	
UACAAGCUUUAAAGAUCCUACAUGAGGAUCACCCAUGUGCUCGUCUUAUAACGUACUGUGACGAAAGUCACGGUACG [JL TOV1 3.20] (Eterna round: R97, puzzle: Sensor, turn-off variant 1)	200 nM		246 nM	
UACAAGCUUUUAAGAUCCCACAUGAGGAUCACCCAUGUGCUCGUCUUGUAACGUACUGUGACGAAAGUCACGGUACG [JL TOV1 3.23] (Eterna round: R97, puzzle: Sensor, turn-off variant 1)	26.7 nM		27.5 nM	
UACACUGCAUGAGGAUCAAACAUGAGGAUCACCCAUGUAUAGCAAGCUUUUUGCGCGUCUUAUAAUUAUGUAGUGUA [Electric Eye 19 - Jieux - Sensor, turn-off variant 1] (Eterna round: R97, puzzle: Sensor, turn-off variant 1)	15.8 nM		15.4 nM	
UACACUGCAUGAGGAUCAAACAUGAGGAUCACCCAUGUGUAGCAAGCUUUUUGCUCGUCUUAUAAUUAUGUAGUGUA [Electric Eye 11 - Jieux - Sensor, turn-off variant 1] (Eterna round: R97, puzzle: Sensor, turn-off variant 1)	14 nM		12.1 nM	
UACAGACAUGAGGAUCACCCAUGUUAGGAUAUGCAGAACUCUACUCACGUGGCGUUUAGCAGAAGGAAUACGGG [Eternabot (L1) Solution 68] (Eterna round: R97, puzzle: Exclusion 1)	122 nM		74.6 nM	
UACAGUCAUCCUUAUUGUUACAUGAGGAUCACCCAUGUUAGUAUAAUUAAGUUAUGUAAGUUUGUUGUUCGUUUUAU [JR_STOV1_v2_Sub075] (Eterna round: R97, puzzle: Sensor, turn-off variant 1)	81.9 nM		84.6 nM	
UACAUGAGGAUCACCCAUGUCGGGUAAACGAAGGUUACUCAAGAGGAUAUAAAACCGAAAGGGUUUUAGAAGGCUUUUCCUCGA [Eternabot solution 27] (Eterna round: R96, puzzle: Exclusion NG 3)	92.3 nM	46 nM	86.7 nM	
UACAUGAGGAUCACCCAUGUUUUAUCAUGUGUAAUAAUAAUGUAGGAUAUGUAUUAUUUAUUUUAACAGAAGGACAAUAAUAAA [JMF's solution 1] (Eterna round: R96, puzzle: Exclusion NG 3)	279 nM	265 nM	362 nM	
UACAUGAGGAUCACCCAUGUUUUGUCGUGUAUGGUACCCGUCUAGGAUAUCGUGUUAUUGGACCACGAGAAGGAGAGUAUCAAU [Excl-NG3-LRO02] (Eterna round: R96, puzzle: Exclusion NG 3)	42.6 nM	20.3 nM	31.7 nM	
UACAUGAGGAUCACCCAUGUUUUGUCGUGUAUGGUAUUUAUCUAGGAUAUCAAUCUAUUUAAUUAUGAGAAGGAGAAUAUUAAU [JMF's solution 53] (Eterna round: R96, puzzle: Exclusion NG 3)	37.2 nM	32.5 nM	39.3 nM	
UACAUGAGGAUCACCCAUGUUUUGUCGUGUAUGGUAUUUAUCUAGGAUAUCAAUCUAUUUAGUUAUGAGAAGGAGAAUAUUAAU [JMF's solution 54] (Eterna round: R96, puzzle: Exclusion NG 3)	39.1 nM	29.9 nM	37.8 nM	
UACAUGAGGAUCACCCAUGUUUUGUCGUGUAUGGUAUUUAUCUAGGAUAUCAAUGAAUUUAUUUAUGAGAAGGAGAAUAUUAAU [JMF's solution 37] (Eterna round: R96, puzzle: Exclusion NG 3)		30.7 nM		
UACAUGAGGAUCACCCAUGUUUUGUCGUGUAUGGUAUUUAUCUAGGAUAUCAAUUGAUUUAAUUAUGAGAAGGAGAAUAUUAAU [JMF's solution 61] (Eterna round: R96, puzzle: Exclusion NG 3)		29.3 nM		
UACAUGAGGAUCACCCAUGUUUUGUCGUGUAUGGUAUUUAUCUAGGAUAUCAAUUUAGUUAGUUAUGAGAAGGAGAAUAUUAAU [JMF's solution 76] (Eterna round: R96, puzzle: Exclusion NG 3)	48 nM	21.1 nM	43.8 nM	
